Measured values published in patent US20250333467A1 (TECTONIC OPERATING, published 2025).
Where “and” joins values, the source holds several entries; their conditions need not be identical. Equal values may be shown once. Read-outs that look alike come from different tables or passages of the source.

Experiments:
Experiment in all cases: cell-based or functional assay
[1] = molecular target: T1, human RXFP1 (human, UniProt Q9HBX9 1-757)
T1 sequence (looked up): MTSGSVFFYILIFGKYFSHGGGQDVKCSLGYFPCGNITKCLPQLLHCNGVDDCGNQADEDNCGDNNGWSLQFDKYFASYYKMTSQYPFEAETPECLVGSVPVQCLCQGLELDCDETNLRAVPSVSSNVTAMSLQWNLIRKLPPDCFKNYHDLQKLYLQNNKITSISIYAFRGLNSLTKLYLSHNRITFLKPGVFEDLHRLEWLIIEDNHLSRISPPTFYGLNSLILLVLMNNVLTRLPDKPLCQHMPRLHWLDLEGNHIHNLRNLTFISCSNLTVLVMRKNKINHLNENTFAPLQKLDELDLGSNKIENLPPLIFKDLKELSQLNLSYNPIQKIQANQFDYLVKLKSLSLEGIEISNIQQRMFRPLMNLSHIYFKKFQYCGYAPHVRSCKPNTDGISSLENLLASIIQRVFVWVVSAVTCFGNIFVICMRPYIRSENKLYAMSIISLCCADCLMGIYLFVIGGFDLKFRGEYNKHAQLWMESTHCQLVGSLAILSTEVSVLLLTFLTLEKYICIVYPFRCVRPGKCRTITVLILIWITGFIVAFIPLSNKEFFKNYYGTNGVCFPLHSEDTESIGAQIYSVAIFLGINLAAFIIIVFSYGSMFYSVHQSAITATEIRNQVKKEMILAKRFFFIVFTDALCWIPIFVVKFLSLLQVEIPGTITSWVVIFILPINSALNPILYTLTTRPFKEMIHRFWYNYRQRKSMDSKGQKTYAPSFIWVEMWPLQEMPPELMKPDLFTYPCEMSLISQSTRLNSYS

[2] = molecular target: T2, rat RXFP1 (rat, UniProt Q6R6I6 1-758)
T2 sequence (looked up): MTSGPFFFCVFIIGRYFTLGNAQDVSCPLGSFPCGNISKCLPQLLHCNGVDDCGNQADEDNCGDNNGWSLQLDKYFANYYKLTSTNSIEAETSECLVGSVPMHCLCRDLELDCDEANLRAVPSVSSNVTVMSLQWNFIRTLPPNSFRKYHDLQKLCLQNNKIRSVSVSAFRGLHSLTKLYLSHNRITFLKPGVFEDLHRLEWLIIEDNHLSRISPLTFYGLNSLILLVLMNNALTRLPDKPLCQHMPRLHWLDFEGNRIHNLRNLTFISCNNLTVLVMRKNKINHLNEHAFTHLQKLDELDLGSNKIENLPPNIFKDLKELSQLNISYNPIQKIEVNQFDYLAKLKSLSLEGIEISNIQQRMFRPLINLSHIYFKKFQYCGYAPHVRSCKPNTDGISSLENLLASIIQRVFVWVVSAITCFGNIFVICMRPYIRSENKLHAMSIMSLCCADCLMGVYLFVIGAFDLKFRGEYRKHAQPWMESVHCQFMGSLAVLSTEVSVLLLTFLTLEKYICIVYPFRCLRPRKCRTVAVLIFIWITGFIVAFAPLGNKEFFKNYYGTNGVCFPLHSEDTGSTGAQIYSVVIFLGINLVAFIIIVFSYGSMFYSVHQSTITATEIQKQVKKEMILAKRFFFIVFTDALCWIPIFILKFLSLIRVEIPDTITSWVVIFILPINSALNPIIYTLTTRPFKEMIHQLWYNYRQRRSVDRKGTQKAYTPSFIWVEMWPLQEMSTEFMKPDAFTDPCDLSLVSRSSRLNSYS

[3] = molecular target: T1, human RXFP1; remark: listed apart in the source
[4] = molecular target: T1, human RXFP1; remark: listed apart in the source
[5] = molecular target: T3, human RXFP2 (human, UniProt Q8WXD0 1-754)
[6] = molecular target: T2, rat RXFP1; remark: listed apart in the source
[7] = molecular target: T1, human RXFP1; remark: listed apart in the source
[8] = molecular target: T3, human RXFP2; remark: listed apart in the source
[9] = molecular target: T4, cynomolgus monkey RXFP1 (cynomolgus monkey, UniProt H9ERA2 1-757 (rhesus entry))
T4 sequence: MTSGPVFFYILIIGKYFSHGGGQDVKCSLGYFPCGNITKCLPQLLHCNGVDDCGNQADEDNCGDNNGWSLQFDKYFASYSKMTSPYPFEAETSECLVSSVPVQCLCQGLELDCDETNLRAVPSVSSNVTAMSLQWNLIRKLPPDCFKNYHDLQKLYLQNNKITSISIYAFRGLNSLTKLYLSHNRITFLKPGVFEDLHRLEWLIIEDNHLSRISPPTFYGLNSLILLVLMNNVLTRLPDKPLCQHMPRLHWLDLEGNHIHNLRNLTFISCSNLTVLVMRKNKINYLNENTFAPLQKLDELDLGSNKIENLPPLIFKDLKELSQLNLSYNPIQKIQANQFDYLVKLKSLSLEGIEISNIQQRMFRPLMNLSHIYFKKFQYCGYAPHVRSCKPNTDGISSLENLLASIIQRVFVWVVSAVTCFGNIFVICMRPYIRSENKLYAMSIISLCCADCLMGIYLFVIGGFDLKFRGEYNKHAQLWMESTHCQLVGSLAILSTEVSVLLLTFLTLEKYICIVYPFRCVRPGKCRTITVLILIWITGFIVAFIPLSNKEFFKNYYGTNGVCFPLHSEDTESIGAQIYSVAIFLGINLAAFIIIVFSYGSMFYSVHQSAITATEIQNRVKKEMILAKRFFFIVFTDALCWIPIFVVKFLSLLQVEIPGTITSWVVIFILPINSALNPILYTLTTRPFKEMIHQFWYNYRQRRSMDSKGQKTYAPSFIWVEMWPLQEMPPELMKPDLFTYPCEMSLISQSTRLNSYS

[10] = molecular target: T2, rat RXFP1; remark: listed apart in the source
[11] = molecular target: T1, human RXFP1; remark: listed apart in the source
[12] = molecular target: T1, human RXFP1; remark: listed apart in the source

T3 sequence (Q8WXD0 whole entry): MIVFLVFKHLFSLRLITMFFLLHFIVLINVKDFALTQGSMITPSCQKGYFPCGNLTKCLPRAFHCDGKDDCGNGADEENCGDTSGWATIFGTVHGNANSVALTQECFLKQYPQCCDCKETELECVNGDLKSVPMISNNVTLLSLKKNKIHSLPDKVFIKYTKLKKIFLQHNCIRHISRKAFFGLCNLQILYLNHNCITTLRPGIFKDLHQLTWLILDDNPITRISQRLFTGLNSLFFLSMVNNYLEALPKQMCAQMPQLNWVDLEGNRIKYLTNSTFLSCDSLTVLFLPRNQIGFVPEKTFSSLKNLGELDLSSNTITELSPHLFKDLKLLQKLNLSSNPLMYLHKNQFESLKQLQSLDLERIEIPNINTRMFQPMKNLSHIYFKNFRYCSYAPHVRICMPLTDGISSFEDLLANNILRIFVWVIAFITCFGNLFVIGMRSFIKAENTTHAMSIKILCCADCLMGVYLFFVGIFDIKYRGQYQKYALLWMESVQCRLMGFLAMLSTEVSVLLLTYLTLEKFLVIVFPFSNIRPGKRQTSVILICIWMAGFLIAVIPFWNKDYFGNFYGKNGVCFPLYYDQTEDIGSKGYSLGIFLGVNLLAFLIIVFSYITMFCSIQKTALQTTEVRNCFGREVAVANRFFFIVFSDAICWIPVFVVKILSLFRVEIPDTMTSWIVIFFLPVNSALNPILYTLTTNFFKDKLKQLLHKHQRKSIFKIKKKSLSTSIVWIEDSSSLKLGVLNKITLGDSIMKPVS

Potency (cAMP, transient hRXFP1 in HEK293) [1]: 5.2 nM | Transient HEK293 rRXFP1 cAMP EC50 [2]: 10.3 nM | THP1 (endogenous RXFP1) cAMP EC50 [3]: 25 nM | Transient HEK293 hRXFP1 cAMP EC50 [3]: 8.7 nM | cAMP response EC50, THP-1 (endogenous RXFP1) [4]: 10 nM and 900 ng/mL | cAMP response EC50, human RXFP1 stable in CHO-K1 [4]: 40 nM and 2000 ng/mL | cAMP response EC50, human RXFP2 stable in CHO-K1 [5]: > 2 µM and > 1e+06 ng/mL | EC50 for cAMP generation, recombinant rat RXFP1 assay (average) [6]: 35 nM | EC50 for cAMP generation, recombinant human RXFP1 assay (average) [7]: 10 nM | fold loss of cAMP potency on human RXFP2 against human RXFP1 (CHO-K1, stable) [8]: ~100 fold | cAMP response EC50, cynomolgus monkey RXFP1 transient in HEK293 [9]: 10 nM and 800 ng/mL | cAMP response EC50, rat RXFP1 transient in HEK293 [10]: 30 nM and 2000 ng/mL | cAMP response EC50, human RXFP1 transient in HEK293 [11]: 10 nM and 800 ng/mL | Potency (cAMP, transient hRXFP1 in HEK293) [12]: 8.5 nM
B1: SEQ ID NO: 87 (Fc fusion)
chain: DKTHTCPPCPAPEAAGGPSVFLFPPKPKDTLMISRTPEVTCVVVDVSHEDPEVKFNWYVDGVEVHNAKTKPREEQYNSTYRVVSVLTVLHQDWLNGKEYKCKVSNKALAAPIEKTISKAKGQPREPQVYTLPPSRDELTKNQVSLTCLVKGFYPSDIAVEWESNGQPENNYKTTPPVLDSDGSFFLYSKLTVDKSRWQQGNVFSCSVLHEALHSHYTQKSLSLSPGKGGSDSWQEEVIKLCGRELVRAQIAICGKSTASDAAGAEAEAGARQLYSALANKCCHVGCTKRSLAQFC
